For this experiment, the target named is CD33 (human) (UniProt P20138). The experiment in a line: cell-based or functional assay.
Sequence of UniProt P20138 (P20138 18-364): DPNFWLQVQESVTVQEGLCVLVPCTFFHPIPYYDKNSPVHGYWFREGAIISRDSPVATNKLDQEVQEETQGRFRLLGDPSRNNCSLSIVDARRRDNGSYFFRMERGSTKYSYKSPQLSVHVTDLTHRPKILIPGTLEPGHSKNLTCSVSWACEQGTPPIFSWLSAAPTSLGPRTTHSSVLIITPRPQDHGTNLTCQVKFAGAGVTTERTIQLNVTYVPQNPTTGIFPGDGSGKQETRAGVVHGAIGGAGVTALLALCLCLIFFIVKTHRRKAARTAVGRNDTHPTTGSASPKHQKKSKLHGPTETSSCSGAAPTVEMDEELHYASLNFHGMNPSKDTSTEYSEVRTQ

Take “^225Ac-labeled lintuzumab (^225Ac-labeled conjugate of p-SCN-Bn-DOTA and lintuzumab) (antibody; the values are: LD50)”: the cytotoxicity on HL60 (leukemia cells): dose at which 50% of the cells were killed (LD50) stood at 8 pCi/mL.

For the origin of these results see patent US20260053963A1.
